Laboratory results reported in publication PMC7997005, “Dynamic interplay between the co-opted Fis1 mitochondrial fission protein and membrane contact site proteins in supporting tombusvirus replication” (PLoS Pathogens, 2021).

Biological target: T1, TBSV Flag-p33 replication protein (tomato bushy stunt virus (TBSV), UniProt P15962 1-296)
T1 construct: TBSV p33 replication protein; co-expressed and co-purified with Flag-p92pol; source: yeast, expressed from a plasmid, in detergent-solubilized membrane fraction
T1 sequence: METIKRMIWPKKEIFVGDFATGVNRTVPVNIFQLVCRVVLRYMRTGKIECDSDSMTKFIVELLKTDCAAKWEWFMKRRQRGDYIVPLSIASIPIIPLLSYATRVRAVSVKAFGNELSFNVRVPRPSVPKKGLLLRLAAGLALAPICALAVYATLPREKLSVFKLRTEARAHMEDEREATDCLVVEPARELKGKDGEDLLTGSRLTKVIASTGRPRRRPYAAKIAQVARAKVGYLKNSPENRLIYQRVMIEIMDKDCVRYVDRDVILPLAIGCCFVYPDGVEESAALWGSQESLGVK
Assay: co-IP; Flag-affinity purification of Flag-tagged replication proteins (TBSV Flag-p33 + Flag-p92pol or CIRV Flag-p36 + Flag-p95pol) from the detergent-solubilized membrane fraction of yeast; samples cross-linked with formaldehyde; co-purified His6-tagged proteins detected with anti-His antibody; WT, fis1Δ, Fis1p- or Dnm1-ZZ-over-expressing yeast; cycloheximide time course
Settings: partners not purified

B1: yeast His6-Sac1p (enzyme, S. cerevisiae, UniProt P32368 1-623, looked up)
chain: MTGPIVYVQNADGIFFKLAEGKGTNDAVIHLANQDQGVRVLGAEEFPVQGEVVKIASLMGFIKLKLNRYAIIANTVEETGRFNGHVFYRVLQHSIVSTKFNSRIDSEEAEYIKLLELHLKNSTFYFSYTYDLTNSLQRNEKVGPAASWKTADERFFWNHYLTEDLRNFAHQDPRIDSFIQPVIYGYAKTVDAVLNATPIVLGLITRRSIFRAGTRYFRRGVDKDGNVGNFNETEQILLAENPESEKIHVFSFLQTRGSVPIYWAEINNLKYKPNLVLGENSLDATKKHFDQQKELYGDNYLVNLVNQKGHELPVKEGYESVVHALNDPKIHYVYFDFHHECRKMQWHRVKLLIDHLEKLGLSNEDFFHKVIDSNGNTVEIVNEQHSVVRTNCMDCLDRTNVVQSVLAQWVLQKEFESADVVATGSTWEDNAPLLTSYQNLWADNADAVSVAYSGTGALKTDFTRTGKRTRLGAFNDFLNSASRYYQNNWTDGPRQDSYDLFLGGFRPHTASIKSPFPDRRPVYIQLIPMIICAALTVLGATIFFPKDRFTSSKNLLYFAGASIVLALSTKFMFKNGIQFVNWPKLVDVGFLVVHQTHDKEQQFKGLKYAQSPKFSKPDPLKRD
notes: Sac1p PI4P phosphatase, S. cerevisiae; source: yeast, expressed from a plasmid, in detergent-solubilized membrane fraction
  fold of co-purified Sac1p, Fis1p-over-expressing against WT yeast: > 2 fold

B2: yeast His6-Fis1p (natural protein, S. cerevisiae, UniProt P40515 1-155, looked up)
chain: MTKVDFWPTLKDAYEPLYPQQLEILRQQVVSEGGPTATIQSRFNYAWGLIKSTDVNDERLGVKILTDIYKEAESRRRECLYYLTIGCYKLGEYSMAKRYVDTLFEHERNNKQVGALKSMVEDKIQKETLKGVVVAGGVLAGAVAVASFFLRNKRR
notes: Fis1p mitochondrial fission 1 protein, S. cerevisiae; also called HisScFis1; source: yeast, expressed from a plasmid, in detergent-solubilized membrane fraction
  fold reduction of co-purified Fis1p when Dnm1p is co-expressed, against yeast without Dnm1p over-expression: ~8 fold

B3: yeast His6-Osh6p (natural protein, S. cerevisiae, UniProt Q02201 1-448, looked up)
chain: MGSKKLTVGSDSHRLSKSSFSSNKSSHSATKDQPIDTDDIDEDDESGHNIILNIISQLRPGCDLTRITLPTFILEKKSMLERVTNQLQFPEFLLQAHSEKDPLKRFLYVMKWYLAGWHIAPKAVKKPLNPVLGEYFTAYWDLPNKQQAYYISEQTSHHPPECAYFYMIPESSIRVDGVVIPKSRFLGNSSAAMMDGSTVLQFLDIKDGNGKPEKYVLTQPNVYVRGILFGKMRIELGDHMIIKSPNFQADIEFKTKGYVFGTYDAIEGTVKDYDGNAYYEISGKWNDVMYLKDLKQPRSSPKVFLDTHKESPLRPKVRPLSEQGEYESRKLWKKVTDALAVRNHPVATEEKFQIEDHQRQLAKKRIEDGVEFHPKLFRRSKPGEDLDYCIYKNIPVDEDPEKQIRSILQIAPILPGQQFTDKFFIPAFEKIKSQKKMIENEKQNPAKQ
notes: source: yeast, expressed from a plasmid, in detergent-solubilized membrane fraction
  fold of co-purified Osh6p, Fis1p-over-expressing against WT yeast: 3.5 fold more
  fold of co-purified Osh6p, fis1Δ against WT yeast: ~4 fold less
